B1: CUB1CUB2 domains of PCPE-2 generated from PCPE-2 3C (domain or fragment, human, UniProt Q9UKZ9 24-270, looked up)
chain: QSPERPVFTCGGILTGESGFIGSEGFPGVYPPNSKCTWKITVPEGKVVVLNFRFIDLESDNLCRYDFVDVYNGHANGQRIGRFCGTFRPGALVSSGNKMMVQMISDANTAGNGFMAMFSAAEPNERGDQYCGGLLDRPSGSFKTPNWPDRDYPAGVTCVWHIVAPKNQLIELKFEKFDVERDNYCRYDYVAVFNGGEVNDARRIGKYCGDSPPAPIVSERNELLIQFLSDLSLTADGFIGHYIFRPK
notes: human PCPE-2 from its beginning to amino-acid 270; an HRV 3C-protease site was inserted between amino-acids 270 and 271 of full-length human PCPE-2; Residues of the two 3C sites are probably left on both ends after cleavage; also called the CUB domains of PCPE-2; not shown: His6, N-terminal, cleaved
B2: procollagen C-proteinase enhancer-2 with N-terminal 6His-tag (natural protein, human, UniProt Q9UKZ9 24-415, looked up)
chain: QSPERPVFTCGGILTGESGFIGSEGFPGVYPPNSKCTWKITVPEGKVVVLNFRFIDLESDNLCRYDFVDVYNGHANGQRIGRFCGTFRPGALVSSGNKMMVQMISDANTAGNGFMAMFSAAEPNERGDQYCGGLLDRPSGSFKTPNWPDRDYPAGVTCVWHIVAPKNQLIELKFEKFDVERDNYCRYDYVAVFNGGEVNDARRIGKYCGDSPPAPIVSERNELLIQFLSDLSLTADGFIGHYIFRPKKLPTTTEQPVTTTFPVTTGLKPTVALCQQKCRRTGTLEGNYCSSDFVLAGTVITTITRDGSLHATVSIINIYKEGNLAIQQAGKNMSARLTVVCKQCPLLRRGLNYIIMGQVGEDGRGKIMPNSFIMMFKTKNQKLLDALKNKQC
notes: human PCPE-2, called full-length; two mutations of the bought clone (829 G>T, 874 C>A) were corrected; The most widely used PCPE-2 construct of the study; also called PCPE-2; PCPE-2[Nter-6His]; not shown: His6, N-terminal, kept

Holding throughout (conditions): both partners purified
The target in assay [1] is T1, bone morphogenetic protein-1 (human, UniProt P13497-2 121-730).
T1 construct: human BMP-1, the BMP-1 (BMP-1-1) splice variant of the BMP1 gene with CUB1-CUB2-EGF-CUB3 auxiliary domains; called full-length BMP-1 against the deletion mutants; also called BMP-1; BMP-1-1; source: Supplementary Methods
T1 sequence (looked up): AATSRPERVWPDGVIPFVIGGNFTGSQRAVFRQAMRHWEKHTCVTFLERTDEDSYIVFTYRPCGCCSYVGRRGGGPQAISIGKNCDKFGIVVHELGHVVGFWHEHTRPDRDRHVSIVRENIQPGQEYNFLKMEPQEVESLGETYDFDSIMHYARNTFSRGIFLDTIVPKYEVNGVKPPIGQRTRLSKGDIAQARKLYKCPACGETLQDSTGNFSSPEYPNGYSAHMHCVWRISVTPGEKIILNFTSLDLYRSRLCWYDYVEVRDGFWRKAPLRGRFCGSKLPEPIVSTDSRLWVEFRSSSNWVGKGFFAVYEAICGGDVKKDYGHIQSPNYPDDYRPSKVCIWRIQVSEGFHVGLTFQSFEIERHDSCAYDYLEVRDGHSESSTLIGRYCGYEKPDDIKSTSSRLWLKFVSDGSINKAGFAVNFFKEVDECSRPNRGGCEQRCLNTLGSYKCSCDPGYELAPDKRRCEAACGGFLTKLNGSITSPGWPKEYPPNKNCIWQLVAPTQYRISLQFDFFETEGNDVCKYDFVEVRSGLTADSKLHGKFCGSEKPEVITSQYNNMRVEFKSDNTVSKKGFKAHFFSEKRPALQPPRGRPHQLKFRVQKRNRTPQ
The experiment in a line: SPR; BMP-1 immobilised by amine coupling on CM5 (974, 1302 or 1492 RU); 10 mM HEPES pH 7.4, 0.15 M NaCl, 5 mM CaCl2, 0.05% P20, 25 °C; PCPE-2 1.56-100 nM with steady-state fit (heterogeneous ligand model for kinetics), 50 nM for comparisons. (In general: In SPR one partner is held on a chip, and binding of the other changes the refractive index at the surface.)

Assay [2] deals with T1, bone morphogenetic protein-1. The experiment in a line: enzyme inhibition assay (fluorogenic peptide cleavage); apparent; 7 nM BMP-1, 20 µM Mca-YVADAPK(Dnp)-OH, PCPE-2 0.07-690 nM, 50 mM HEPES pH 7.4, 5 mM CaCl2, 0.02% βOG, 37 °C; Morrison equation for tight-binding inhibitors with a constant for partial inhibition.
Assay [3] concerns the target B2. Put plainly: SPR; mini-procollagen III immobilised by amine coupling on CM5 (435, 437 or 651 RU); analytes in 10 mM HEPES pH 7.4, 0.15 M NaCl, 5 mM CaCl2, 0.05% P20, 25 °C; steady-state fit for constants, 50 nM single injections for the CUB1CUB2* mutants.
In assay [4] the target is T2, procollagen C-proteinase enhancer 1, native form with no His tag (human, UniProt Q15113 26-449).
T2 construct: PCPE-1, native form with no His tag, used in the SPR analyses; The activity assays used another form, PCPE-1[Cter-8His]; also called PCPE-1
T2 sequence (looked up): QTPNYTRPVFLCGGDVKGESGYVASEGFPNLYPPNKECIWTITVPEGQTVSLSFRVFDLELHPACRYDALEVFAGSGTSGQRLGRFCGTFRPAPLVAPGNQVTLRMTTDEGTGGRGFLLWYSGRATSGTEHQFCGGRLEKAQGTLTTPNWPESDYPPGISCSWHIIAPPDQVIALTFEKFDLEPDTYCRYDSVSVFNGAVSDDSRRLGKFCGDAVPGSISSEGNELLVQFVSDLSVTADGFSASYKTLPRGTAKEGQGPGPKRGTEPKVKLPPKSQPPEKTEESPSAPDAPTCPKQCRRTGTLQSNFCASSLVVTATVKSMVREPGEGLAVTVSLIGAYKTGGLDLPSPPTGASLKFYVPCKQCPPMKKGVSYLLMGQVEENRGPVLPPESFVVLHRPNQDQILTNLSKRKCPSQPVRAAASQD
The description is as above.

The target in assay [5] is B1. Described as above.

Regarding B1, the binding result in assay [1] is “binds”.
For orientation: Kd means the constant that tells how readily two partners part at equilibrium. Turning to B2, the dissociation constant Kd in assay [1] came out at 8.4 nM. For the same molecule, the Ki in assay [2] worked out at 2.8 nM.

B3: mini-procollagen III (domain or fragment)
chain: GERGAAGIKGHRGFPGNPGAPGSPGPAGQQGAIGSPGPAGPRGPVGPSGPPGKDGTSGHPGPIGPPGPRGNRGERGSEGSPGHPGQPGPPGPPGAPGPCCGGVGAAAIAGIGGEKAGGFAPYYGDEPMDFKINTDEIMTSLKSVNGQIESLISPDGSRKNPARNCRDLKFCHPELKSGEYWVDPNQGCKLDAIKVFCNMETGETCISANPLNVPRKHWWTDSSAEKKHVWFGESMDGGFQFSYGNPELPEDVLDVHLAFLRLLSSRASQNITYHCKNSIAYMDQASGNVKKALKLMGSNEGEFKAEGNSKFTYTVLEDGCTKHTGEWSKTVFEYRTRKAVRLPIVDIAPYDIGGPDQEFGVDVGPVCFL
modifications: Homotrimer. The paper does not print the limits. The start assumes the last 33 Gly-X-Y triplets (helix end at 1196), recalled from earlier descriptions of this construct, followed by the intact …
With B3, the Kd in assay [3] is 11 nM; in assay [4], 2.2 nM; in assay [5], around 30 nM.

(Values after publication PMC10696041, “Identification of PCPE-2 as the endogenous specific inhibitor of human BMP-1/tolloid-like proteinases” (Nature Communications, 2023).)
